Positions count from the first letter of the chain named. In names and notes the source's numbering stands.
B1: His-tagged Vps1 wild type (natural protein, S. cerevisiae, UniProt P21576 1-704, looked up)
chain: MDEHLISTINKLQDALAPLGGGSQSPIDLPQITVVGSQSSGKSSVLENIVGRDFLPRGTGIVTRRPLVLQLINRRPKKSEHAKVNQTANELIDLNINDDDKKKDESGKHQNEGQSEDNKEEWGEFLHLPGKKFYNFDEIRKEIVKETDKVTGANSGISSVPINLRIYSPHVLTLTLVDLPGLTKVPVGDQPPDIERQIKDMLLKYISKPNAIILSVNAANTDLANSDGLKLAREVDPEGTRTIGVLTKVDLMDQGTDVIDILAGRVIPLRYGYIPVINRGQKDIEHKKTIREALENERKFFENHPSYSSKAHYCGTPYLAKKLNSILLHHIRQTLPEIKAKIEATLKKYQNELINLGPETMDSASSVVLSMITDFSNEYAGILDGEAKELSSQELSGGARISYVFHETFKNGVDSLDPFDQIKDSDIRTIMYNSSGSAPSLFVGTEAFEVLVKQQIRRFEEPSLRLVTLVFDELVRMLKQIISQPKYSRYPALREAISNQFIQFLKDATIPTNEFVVDIIKAEQTYINTAHPDLLKGSQAMVMVEEKLHPRQVAVDPKTGKPLPTQPSSSKAPVMEEKSGFFGGFFSTKNKKKLAALESPPPVLKATGQMTERETMETEVIKLLISSYFSIVKRTIADIIPKALMLKLIVKSKTDIQKVLLEKLYGKQDIEELTKENDITIQRRKECKKMVEILRNASQIVSSV
notes: Vps1, dynamin-related protein of S. cerevisiae; also called recombinant Vps1; wild-type Vps1
B2: His-tagged Vps1 S599D (natural protein, S. cerevisiae, UniProt P21576 1-704, looked up)
chain: B1 chain with S599D
notes: Vps1, dynamin-related protein of S. cerevisiae, with S599D; also called S599D mutant; pKA972
B3: His-tagged Vps1 S599V (natural protein, S. cerevisiae, UniProt P21576 1-704, looked up)
chain: B1 chain with S599V
notes: Vps1, dynamin-related protein of S. cerevisiae, with S599V; also called S599V mutant; pKA971

Target: the molecule itself
Experiment: negative-stain transmission electron microscopy; purified recombinant Vps1; oligomeric single rings and double-ring structures seen after negative staining

Binding result, binds:
B1
B2
B3
